Test results from paper PMC4428629, “The Structure of an NDR/LATS Kinase–Mob Complex Reveals a Novel Kinase–Coactivator System and Substrate Docking Mechanism” (PLoS Biology, 2015).
Non-standard residues stand in square brackets, D forms with d. Residues, ends and D or L forms follow the SMILES beside them. No end group written: not given here. carboxyfluorescein = carboxyfluorescein label; pT = C[C@@H](OP(=O)(O)O)[C@H](N)C(=O)O

What was measured:
[1] = target: pepAce2, carboxyfluorescein-labelled (S. cerevisiae); assay: fluorescence polarisation; direct titration: protein titrated into 20 nM carboxyfluorescein-labelled peptide; 20 mM Tris (pH 8.0), 100 mM NaCl, 0.05% Brij35P, 2 mM DTT; quadratic binding equation
[2] = tested on: Cbk1^251–756–Mob2 (T743E); assay: Peptide kinase assay, WT Cbk1 (T743E); format: biochemical, Saccharomyces cerevisiae; settings: for 32P incorporation into peptide, Average: Average of Rep 1-4, 100 μM peptide, 50 nM kinase, 40 μM ATP, 1 h
Procedure: (§1) For peptide kinase assays, reactions were performed in the presence of 50 nM Cbk1^251–756–Mob2, 40 μM ATP, 2 mM DTT, 5 mM MnCl2, 2 μCi γ-^32P-ATP, and 100 μM Docktide ([…]) or AKAPtide ([…]). Reactions were initiated by the addition of ATP. Samples were quenched after 1 h by the addition of a 5-μl sample to P81 paper (Whatman) and subsequent submersion in 75 mM phosphoric acid to remove background γ-^32P-ATP. After drying, signal was determined by Čerenkov counting in an LS 6500 scintillation counter (Beckman). Counts per minute was efficiency corrected and converted to femtomoles ^32P followed by conversion to total ATP (labeled and unlabeled). Significance was determined by an unpaired two-tailed Student’s t-test.
(§2) Supplementary file pbio.1002146.s003.xlsx: S3 Data Enzymological characterization of the effects of Cbk1 docking. Assay data from experiments that used γ-^32P-ATP in protein kinase reactions with synthetic substrate peptides from Ssd1 that either contained both the core Cbk1 docking motif and a Cbk1 phosphorylation consensus motif (Docktide) or contained a core Cbk1 docking motif mutated to abrogate binding to the kinase and a Cbk1 consensus motif (AKAPtide). These kinase assays were performed either with Cbk1(T743E) or with Cbk1(Y687A/T743E). The latter construct carries a mutation that eliminates docking motif association with the kinase. (XLSX) Click here for additional data file.

[3] = tested on: Cbk1(Y687A/T743E); assay: Peptide kinase assay, Cbk1(Y687A/T743E); format: biochemical, Saccharomyces cerevisiae; settings: for 32P incorporation into peptide, Average: Average of Rep 1-4, 100 μM peptide, 50 nM kinase, 40 μM ATP, 1 h
Procedure: as §1, §2

[4] = target: T1, Cbk1^Δ730–756–Mob2 (Saccharomyces cerevisiae, UniProt P43563+P53894); assay: biochemical; format: binding
T1 construct: His6-Cbk1^251–756 was co-expressed with GST-Mob2 (full length or 45–287); His6 (N); made in house
Excerpt: ND, not determined. […] (PDF) Click here for additional data file.

[5] = target: Cbk1(Y687A)–Mob2 complex (S. cerevisiae, UniProt P53894 251-756; P43563 1-287, Y687A); assay: FP
[6] = target: T2, Cbk1^251–756–Mob2 complex (S. cerevisiae, UniProt P53894 251-756; P43563 1-287); assay: FP
T2 chain 1: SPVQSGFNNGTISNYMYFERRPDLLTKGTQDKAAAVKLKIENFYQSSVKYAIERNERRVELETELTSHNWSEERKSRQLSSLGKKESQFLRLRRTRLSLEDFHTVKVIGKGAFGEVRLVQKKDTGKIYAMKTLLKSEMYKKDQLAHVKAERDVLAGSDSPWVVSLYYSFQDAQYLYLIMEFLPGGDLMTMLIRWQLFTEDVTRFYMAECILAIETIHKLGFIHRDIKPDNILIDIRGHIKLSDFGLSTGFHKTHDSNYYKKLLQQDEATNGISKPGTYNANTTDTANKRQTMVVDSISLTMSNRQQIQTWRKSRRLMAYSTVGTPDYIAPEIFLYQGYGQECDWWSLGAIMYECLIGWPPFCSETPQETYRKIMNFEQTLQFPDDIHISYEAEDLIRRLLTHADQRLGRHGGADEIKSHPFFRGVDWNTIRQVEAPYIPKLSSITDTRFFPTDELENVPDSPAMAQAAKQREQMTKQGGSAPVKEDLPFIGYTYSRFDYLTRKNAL
T2 chain 2: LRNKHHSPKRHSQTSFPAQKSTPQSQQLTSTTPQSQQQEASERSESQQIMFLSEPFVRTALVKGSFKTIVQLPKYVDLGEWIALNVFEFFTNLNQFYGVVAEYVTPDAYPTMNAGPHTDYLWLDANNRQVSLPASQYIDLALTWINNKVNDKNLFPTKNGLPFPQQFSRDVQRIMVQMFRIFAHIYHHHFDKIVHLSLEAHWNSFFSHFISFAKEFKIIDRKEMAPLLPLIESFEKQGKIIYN

[7] = target: Cbk1(W444A)–Mob2 complex (S. cerevisiae, UniProt P53894 251-756; P43563 1-287, W444A); assay: FP
[8] = target: Cbk1(F447A)–Mob2 complex (S. cerevisiae, UniProt P53894 251-756; P43563 1-287, F447A); assay: FP
[9] = target: Cbk1(F699A)–Mob2 complex (S. cerevisiae, UniProt P53894 251-756; P43563 1-287, F699A); assay: FP
[10] = target: T3, Cbk1^352–756 kinase domain (S. cerevisiae, UniProt P53894 352-756); assay: pull-down; pull-down of Cbk1^352–756 by bead-bound Ace2 or Ssd1 docking motifs in competition with unbound Ace2^270–290; settings: both partners purified
T3 construct: source: bacterially expressed, purified (Ni-NTA, glutathione Sepharose); not shown: His6, C-terminal, kept
T3 sequence (looked up): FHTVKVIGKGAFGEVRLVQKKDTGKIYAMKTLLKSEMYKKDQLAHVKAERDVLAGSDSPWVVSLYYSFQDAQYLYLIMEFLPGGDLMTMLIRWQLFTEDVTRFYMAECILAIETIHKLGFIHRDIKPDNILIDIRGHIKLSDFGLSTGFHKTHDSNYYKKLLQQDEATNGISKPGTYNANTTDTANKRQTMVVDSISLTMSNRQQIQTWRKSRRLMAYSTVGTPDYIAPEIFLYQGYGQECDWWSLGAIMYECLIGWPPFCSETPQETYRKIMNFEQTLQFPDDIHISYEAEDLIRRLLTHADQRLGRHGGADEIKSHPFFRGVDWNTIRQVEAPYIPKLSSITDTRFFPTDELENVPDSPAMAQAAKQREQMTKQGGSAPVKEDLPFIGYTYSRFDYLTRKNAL

[11] = target: T4, Cbk1^352–692 kinase domain (S. cerevisiae, UniProt P53894 352-692); assay: pull-down; MBP fusions on amylose beads incubated with 1 μM purified Cbk1 on ice for 15 min, washed 3× with PBS; GelCode Blue or immunoblot (His or pS570 antibodies); settings: both partners purified
T4 construct: also called catalytic domain alone; source: bacterially expressed, purified (Ni-NTA, glutathione Sepharose); not shown: His6, C-terminal, kept
T4 sequence (looked up): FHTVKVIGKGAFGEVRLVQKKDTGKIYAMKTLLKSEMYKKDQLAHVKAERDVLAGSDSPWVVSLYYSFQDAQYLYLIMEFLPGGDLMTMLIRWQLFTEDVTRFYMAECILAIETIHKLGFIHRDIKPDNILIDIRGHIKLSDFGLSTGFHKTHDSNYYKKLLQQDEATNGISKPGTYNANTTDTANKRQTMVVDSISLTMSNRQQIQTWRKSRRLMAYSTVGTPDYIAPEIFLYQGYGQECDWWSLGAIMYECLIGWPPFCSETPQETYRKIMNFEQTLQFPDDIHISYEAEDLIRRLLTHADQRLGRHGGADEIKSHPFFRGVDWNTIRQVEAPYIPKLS

[12] = target: T5, Cbk1(D475A/T743E), residues 251-756 (S. cerevisiae, UniProt P53894 251-756, D475A | T743E); assay: crystal structure; Cbk1(D475A) or Cbk1(D475A/T743E) with Mob2, tags cleaved, 4–6 mg/ml, 2 mM AMPPNP, 2 mM MgCl2, 2 mM TCEP; microbatch under oil at 23°C; three crystal forms; settings: both partners purified
T5 construct: two crystal forms (A, 4.5 Å; B, 3.6 Å); also called Cbk1(HM-E); Cbk1(T743E); source: bacterially expressed with Mob2, purified (Ni-NTA, glutathione Sepharose, TEV cleavage, Resource S); not shown: His6, N-terminal, cleaved
T5 sequence (looked up): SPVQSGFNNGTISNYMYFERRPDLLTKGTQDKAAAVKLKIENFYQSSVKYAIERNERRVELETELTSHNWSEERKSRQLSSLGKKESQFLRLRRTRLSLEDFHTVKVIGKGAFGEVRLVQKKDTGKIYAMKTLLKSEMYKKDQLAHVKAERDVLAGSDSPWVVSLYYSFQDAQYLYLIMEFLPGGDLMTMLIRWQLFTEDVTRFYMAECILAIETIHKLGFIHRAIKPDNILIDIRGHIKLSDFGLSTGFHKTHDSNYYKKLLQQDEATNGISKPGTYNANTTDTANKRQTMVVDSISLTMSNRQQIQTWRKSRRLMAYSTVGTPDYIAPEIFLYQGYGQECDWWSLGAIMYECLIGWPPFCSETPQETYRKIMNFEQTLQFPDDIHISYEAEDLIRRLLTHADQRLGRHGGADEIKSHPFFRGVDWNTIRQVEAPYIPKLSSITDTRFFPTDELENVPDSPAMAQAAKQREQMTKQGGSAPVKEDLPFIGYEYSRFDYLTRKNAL

[13] = target: T6, Cbk1(D475A), residues 251-756, intact hydrophobic motif (S. cerevisiae, UniProt P53894 251-756, D475A); assay: as above; settings: both partners purified
T6 construct: crystallised with AMPPNP; also called Cbk1(HM-T); source: bacterially expressed with Mob2, purified (Ni-NTA, glutathione Sepharose, TEV cleavage, Resource S); not shown: His6, N-terminal, cleaved
T6 sequence (looked up): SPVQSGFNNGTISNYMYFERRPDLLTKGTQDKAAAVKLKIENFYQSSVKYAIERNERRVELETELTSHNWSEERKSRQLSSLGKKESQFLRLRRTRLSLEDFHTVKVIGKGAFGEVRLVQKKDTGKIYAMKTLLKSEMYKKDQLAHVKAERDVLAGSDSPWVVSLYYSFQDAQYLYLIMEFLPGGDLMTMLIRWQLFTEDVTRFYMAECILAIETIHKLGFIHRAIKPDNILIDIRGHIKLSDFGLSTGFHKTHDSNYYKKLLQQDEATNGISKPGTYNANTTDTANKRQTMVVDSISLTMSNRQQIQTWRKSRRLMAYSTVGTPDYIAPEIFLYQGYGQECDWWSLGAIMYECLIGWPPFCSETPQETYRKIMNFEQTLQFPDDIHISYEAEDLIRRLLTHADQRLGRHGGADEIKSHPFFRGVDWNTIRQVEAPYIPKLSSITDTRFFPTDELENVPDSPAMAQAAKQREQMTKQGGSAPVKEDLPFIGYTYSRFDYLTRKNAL

Chain of Cbk1(Y687A)–Mob2 complex (P53894 251-756 Y687A, chain 1 of 2, one chain of several): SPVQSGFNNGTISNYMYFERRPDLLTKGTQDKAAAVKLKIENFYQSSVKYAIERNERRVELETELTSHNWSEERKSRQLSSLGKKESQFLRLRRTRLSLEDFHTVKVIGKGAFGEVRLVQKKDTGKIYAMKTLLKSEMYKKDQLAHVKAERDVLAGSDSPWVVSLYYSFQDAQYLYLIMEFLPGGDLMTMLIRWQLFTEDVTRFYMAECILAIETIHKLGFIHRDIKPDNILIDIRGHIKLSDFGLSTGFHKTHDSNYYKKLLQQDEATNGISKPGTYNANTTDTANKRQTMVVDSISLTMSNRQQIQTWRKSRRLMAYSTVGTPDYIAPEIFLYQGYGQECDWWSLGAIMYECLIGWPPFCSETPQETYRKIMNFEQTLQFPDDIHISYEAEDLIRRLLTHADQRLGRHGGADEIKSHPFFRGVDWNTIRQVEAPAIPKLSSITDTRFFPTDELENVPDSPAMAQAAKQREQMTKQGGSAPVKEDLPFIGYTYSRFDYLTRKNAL
Chain of Cbk1(W444A)–Mob2 complex (P53894 251-756 W444A, chain 1 of 2, one chain of several): as the sequence (P53894 251-756 Y687A, chain 1 of 2, one chain of several) above, with W194A, A437Y counted along it
Chain of Cbk1(F447A)–Mob2 complex (P53894 251-756 F447A, chain 1 of 2, one chain of several): as the sequence (P53894 251-756 Y687A, chain 1 of 2, one chain of several) above, with F197A, A437Y counted along it
T1 sequence (P43563 whole entry, stated change not applied, one chain of several): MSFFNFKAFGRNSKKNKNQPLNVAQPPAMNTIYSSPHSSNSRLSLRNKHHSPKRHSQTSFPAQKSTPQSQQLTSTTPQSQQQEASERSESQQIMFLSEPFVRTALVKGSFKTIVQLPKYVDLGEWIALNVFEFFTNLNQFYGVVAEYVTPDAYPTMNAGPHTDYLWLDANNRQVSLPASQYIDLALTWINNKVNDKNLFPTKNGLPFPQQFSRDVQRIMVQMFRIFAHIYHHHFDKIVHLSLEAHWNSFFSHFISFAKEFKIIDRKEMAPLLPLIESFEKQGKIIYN

“Cbk1^251–756–Mob2 complex (from UniProt P53894 251-756; P43563 1-287)” was tested, and the Kd [1] was 6 µM.

In the case of “CDFKFPPPPNAHGGHRRATSN [Docktide, Ssd1 (210–229)-based peptide with docking motif FKFP and Cbk1 consensus site]”, the “32P incorporation into peptide, Average” value [2] is reported as 76.8 fmol, the “effect of WT docking motif on phosphorylation” value ([2]; relative to peptide with mutant docking motif (AKAPtide)) is reported as “enhances phosphorylation by WT Cbk1” and the “32P incorporation into peptide, Average” value [3] is reported as 45.9 fmol. The “effect of WT docking motif on phosphorylation” value ([3]; Cbk1(Y687A)) was “loses this enhancement”.

Molecule `CC[C@H](C)[C@H](N)C(=O)NCC(=O)N[C@@H](Cc1ccc(O)cc1)C(=O)N[C@H](C(=O)N[C@@H](Cc1ccc(O)cc1)C(=O)N[C@@H](CO)C(=O)N[C@@H](CCCNC(=N)N)C(=O)N[C@@H](Cc1ccccc1)C(=O)N[C@@H](CC(=O)O)C(=O)N[C@@H](Cc1ccc(O)cc1)C(=O)O)[C@@H](C)O` [pepHM] (H-IGYTYSRFDY-OH) has a Kd [4] of ~33 µM.

For “CDAKAPPPPNAHGGHRRATSN [AKAPtide, Ssd1-based peptide with mutated docking motif AKAP and Cbk1 consensus site]”, the “32P incorporation into peptide, Average” value [2] was 57.4 fmol and the “32P incorporation into peptide, Average” value [3] was 45.5 fmol.

IGY[pT]YSRFDY-carboxyfluorescein [pepHM-P, carboxyfluorescein-labelled] gave a Kd [5] of 22 µM, a Kd [6] of 20 µM and a Kd [7] of 24 µM. The Kd [8] was 33 µM and the Kd [9] was 28 µM.

NAIIVTTNSANGGYQFPPPTL (domain or fragment, S. cerevisiae, UniProt P21192 270-290, looked up) [unbound Ace2^270–290]: binds [10].

B1: Ace2^270–290 docking motif, MBP fusion (domain or fragment, S. cerevisiae, UniProt P21192 270-290, looked up)
chain: NAIIVTTNSANGGYQFPPPTL
notes: Ace2 of budding yeast, residues 270-290; also called WT Ace2 (two glycine residues)
B1: binds [10]; binds [11].

Molecule carboxyfluorescein-TTEQSDFKFP [pepSSD1, carboxyfluorescein-labelled] has a Kd [5] of 36 µM, a Kd [6] of 6 µM and a Kd [7] of 58 µM. For the same molecule, the Kd [9] was 4.9 µM.

B2: Mob2, residues 45-287 (natural protein, S. cerevisiae, UniProt P43563 45-287, looked up)
chain: LRNKHHSPKRHSQTSFPAQKSTPQSQQLTSTTPQSQQQEASERSESQQIMFLSEPFVRTALVKGSFKTIVQLPKYVDLGEWIALNVFEFFTNLNQFYGVVAEYVTPDAYPTMNAGPHTDYLWLDANNRQVSLPASQYIDLALTWINNKVNDKNLFPTKNGLPFPQQFSRDVQRIMVQMFRIFAHIYHHHFDKIVHLSLEAHWNSFFSHFISFAKEFKIIDRKEMAPLLPLIESFEKQGKIIYN
notes: the crystallised construct begins at 45 (N-terminal Mob2 region 45-110 not seen in the density); source: bacterially expressed with Cbk1, purified (Ni-NTA, glutathione Sepharose, TEV cleavage, Resource S); not shown: GST, N-terminal, cleaved
B2: binds [12]; binds [13].
